Measurements: publication PMC9669668
Read-outs that look alike come from different tables or passages of the source.

Experiments:
[1] = target: nucleotide-binding domain of Hsp70 (Hsp70 NBD, aa 1–382) (human) (UniProt P0DMV8); test: ITC
[2] = target: nucleotide-binding domain of Hsp70 (Hsp70 NBD, aa 1–382) (human) (UniProt P0DMV8); test: ITC; remark: listed apart in the source

UniProt P0DMV8, sequence (P0DMV8 1-382): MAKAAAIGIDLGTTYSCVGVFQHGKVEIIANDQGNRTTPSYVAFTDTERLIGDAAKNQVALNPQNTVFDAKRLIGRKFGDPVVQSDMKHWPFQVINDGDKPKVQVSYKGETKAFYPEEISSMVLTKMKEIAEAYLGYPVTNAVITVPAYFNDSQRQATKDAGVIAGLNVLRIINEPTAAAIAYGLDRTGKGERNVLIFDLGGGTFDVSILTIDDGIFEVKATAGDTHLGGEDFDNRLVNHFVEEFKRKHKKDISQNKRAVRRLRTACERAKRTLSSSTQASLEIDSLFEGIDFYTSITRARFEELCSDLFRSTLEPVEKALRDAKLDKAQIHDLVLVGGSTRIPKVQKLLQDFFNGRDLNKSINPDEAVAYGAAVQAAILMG

Substance	Kd [1] [µM]	stoichiometry N [1]	Kd [2] [µM]
FAF1 (aa 1–171) (from UniProt Q9UNN5 1-171) (domain or fragment)	15.9	1	56.5
FAF1 L-UBL1 (aa 91–171) (from UniProt Q9UNN5 91-171) (domain or fragment)	3.1	1	3.1
